# Results: patent US20100048413
# Test system: aspRS-OB wild type (anticodon-binding OB-fold domain of aspartyl-tRNA synthetase) (Pyrobaculum aerophilum)
# Experiment: pulldown
# Settings: phage binding to immobilised tRNA; RNase A elution; VCS-M13 without display 1.42
substance,measurement,value
"asp-tRNA (P. aerophilum, in vitro transcript)",binding signal (fold recovery over beads only),190
